{"source": "patent US20050214212A1", "key": {"[1]": {"molecular_target": "glutathione-S-transferase fusion protein containing domains v3-v10 of human CD44 (human) (UniProt P16070)", "sequence (P16070 267-604)": "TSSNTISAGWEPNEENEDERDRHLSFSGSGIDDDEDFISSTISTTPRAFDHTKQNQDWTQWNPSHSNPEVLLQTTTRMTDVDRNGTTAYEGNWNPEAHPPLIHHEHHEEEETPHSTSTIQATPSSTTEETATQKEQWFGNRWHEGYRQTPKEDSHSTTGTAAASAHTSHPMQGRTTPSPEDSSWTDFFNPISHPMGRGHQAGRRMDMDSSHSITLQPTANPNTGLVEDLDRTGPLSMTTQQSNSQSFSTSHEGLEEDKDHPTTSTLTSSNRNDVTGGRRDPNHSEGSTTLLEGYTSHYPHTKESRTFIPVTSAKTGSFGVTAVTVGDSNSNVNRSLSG", "assay": "SPR (BIAcore 2000), GST/CD44v3-v10 immobilised on CM5"}, "[2]": {"molecular_target": "CD44v6 (human CD44 variant isoform containing exon v6) on human tumour cells (human) (UniProt P16070)", "assay": "immunoreactivity assay, 186Re-MAG3-labelled MAb on fixed UM-SCC-11B cells"}, "[3]": {"molecular_target": "glutathione-S-transferase fusion protein containing domains v3-v10 of human CD44 (human) (UniProt P16070)", "assay": "SPR (BIAcore 2000), GST/CD44v3-v10 immobilised on CM5, MAb 8-67 nM injected"}, "[4]": {"molecular_target": "CD44v6 (human CD44 variant isoform containing exon v6) on human tumour cells (human) (UniProt P16070)", "assay": "immunoreactivity assay, 125I-labelled MAb on glutaraldehyde-fixed UM-SCC-11B cells, experiment 2"}, "[5]": {"molecular_target": "CD44v6 (human CD44 variant isoform containing exon v6) on human tumour cells (human) (UniProt P16070)", "assay": "immunoreactivity assay on fixed UM-SCC-11B cells, linear extrapolation to infinite antigen excess, experiment 2"}, "[6]": {"molecular_target": "CD44v6 (human CD44 variant isoform containing exon v6) on human tumour cells (human) (UniProt P16070)", "assay": "competitive cell ELISA (A431 cells, vs BIWA 1)"}}}
{"substance": "cMAb BIWA 2 (chimeric antibody: BIWA 1 variable regions, human gamma-1 and kappa constant regions)", "values": [{"measurement": "Kd relative to murine BIWA 1", "setting": "[1]", "value": 0.7}, {"measurement": "immunoreactive fraction", "setting": "[2]", "value": "> 75", "unit": "%"}, {"measurement": "Kd", "setting": "[3]", "value": 240, "unit": "pM"}, {"measurement": "koff", "setting": "[3]", "value": "4.1e-05", "unit": "s⁻¹"}, {"measurement": "kon", "setting": "[3]", "value": 170000, "unit": "M⁻¹ s⁻¹"}, {"measurement": "Binding to 5 × 10^6 cells (%)", "setting": "[4]", "value": 80.5, "unit": "%"}, {"measurement": "Binding Extrapolated (%) (immunoreactive fraction)", "setting": "[5]", "value": 79.9, "unit": "%"}]}
{"substance": "hMAb BIWA 4 (bivatuzumab), humanised CDR-grafted antibody without framework modifications", "values": [{"measurement": "IC50", "setting": "[6]", "value": 8.01, "unit": "µg/mL"}]}
